The assay addresses rabbit serum albumin (RSA) (Oryctolagus cuniculus, UniProt P49065). The experiment in a line: Mass spectrometric analysis of conjugation to RSA (HPLC/ESIMS, MALDI-TOFMS). The class given is binding. As to conditions: LC/MS; 15 μM RSA, 200 μM argatroban-C6 NHS ester, 1 hour (Example 8). The procedure: All samples were analyzed using a high performance liquid chromatograph (HPLC) coupled in-line to an electrospray ionization (ESI) mass spectrometer (MS) which is termed HPLC/ESIMS. Some samples were also analyzed using a matrix-assisted laser desorption ionization (MALDI) time-of-flight (TOF) mass spectrometer which is termed (MALDI-TOFMS).
Samples for HPLC/ESIMS were either prepared as duplicate reaction samples or were part of the same reaction samples which were used in the ELISA assays described below. These samples were injected directly only the HPLC/ESIMS without any manipulation other than dilution with water, where the PBS, DMSO, and unreacted derivative molecules are separated from the protein-argatroban derivative molecule conjugate. Samples for MALDI-MS were first HPLC-purified and mixed 1:1 directly on the stainless steel analysis plate with a matrix of 10 mg/ml sinnapinic acid in 50% acetonitrile/50% water. The mixture was then dried with a gentle flow of air to allow for crystallization and inserted into the instrument for laser ionization.
The HPLC is a Hewlett Packard 1090 Series II liquid chromatogram with a diode array detector. The column used for separation is a Brownlee aquapore OD-300 reversed phase C18 column, 1 mm×10 cm, 300 Å pore size, 7 μm particle diameter. The mass spectrometer to which the HPLC is connected using fused Silica capillary tubing is a Sciex API-300 triple quadrupole mass spectrometer with an ionspray source to allow for atmospheric pressure ionization of a liquid flowing continuously into the instrument. The MALDI-TOFMS is a Perceptive Biosystems Voyager Elite DE instrument run in the linear mode.
The conjugate was prepared according to the following protocol. […] Sham samples consist of the RSA incubated for the same length of time at RT in 2% DMSO in PBS. Each of the samples was then concentrated to a final volume of 1.5 mL using Amicon Centricon 30 filtration/concentration devices. The concentrated samples were then desalted on Pierce's 5 ML Kwiksep excellulose plastic desalting columns. The excluded volumes containing RSA or argatroban-C6-RSA were then subjected to BCA microprotein estimation and lyophilization. In addition, these samples were analyzed by LC/MS, sandwich ELISA assays (described above) to measure thrombin binding and immunoblotting.

rabbit serum albumin (RSA), sequence (P49065 25-608): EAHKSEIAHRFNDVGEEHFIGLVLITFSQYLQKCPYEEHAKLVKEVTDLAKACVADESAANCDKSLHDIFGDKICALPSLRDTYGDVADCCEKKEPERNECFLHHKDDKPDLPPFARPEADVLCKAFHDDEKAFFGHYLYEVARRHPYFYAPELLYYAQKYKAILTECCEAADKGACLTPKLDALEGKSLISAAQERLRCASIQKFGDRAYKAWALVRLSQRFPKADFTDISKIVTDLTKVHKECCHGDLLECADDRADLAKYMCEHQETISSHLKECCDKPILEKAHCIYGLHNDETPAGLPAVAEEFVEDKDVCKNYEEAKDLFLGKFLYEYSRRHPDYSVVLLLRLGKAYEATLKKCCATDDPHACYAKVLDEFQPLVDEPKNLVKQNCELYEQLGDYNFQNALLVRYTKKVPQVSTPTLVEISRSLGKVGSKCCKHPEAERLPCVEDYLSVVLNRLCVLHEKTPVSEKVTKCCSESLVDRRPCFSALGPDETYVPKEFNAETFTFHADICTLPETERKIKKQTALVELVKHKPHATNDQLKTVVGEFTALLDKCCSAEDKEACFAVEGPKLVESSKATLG

Consider “RSA-argatroban-C6 conjugate: rabbit serum albumin covalently bound by argatroban-C6 NHS ester molecules”, for which the “average of tethered argatroban molecules conjugated to each RSA molecule” value is given as 10 tethered argatroban molecules.

The record behind these values is patent US6087375A, “Methods of treating or preventing thromboses” (priority 1999, dated 2000).
